Experimental data taken from PMC8770391 (Biosensors & Bioelectronics, 2022).

Target: SARS-CoV-2 antigen (nucleocapsid protein) (SARS-CoV-2; strain of the recombinant …, UniProt P0DTC9)
Assay: ELISA

| Binder | Kd |
| --- | --- |
| detection antibody against the SARS-CoV-2 antigen (antibody, V domains shown) VH: EVQLVESGGGLVQPGGSLRLSCAASGFTFSTYAMSWVRQAPGKGLEWVSGITGSGGATDYADSVKGRFTISRDNSKNTLYLQMNSLRAEDTAVYYCARINYRAVWGMDYWGQGTLVTVSS VL: DIQMTQSPSSLSASVGDRVTITCRASQNVSSYLAWYQQKPGKAPKLLIYGASNLASGVPSRFSGSGSGTDFTLTISSLQPEDFATYYCQQGANAPLTFGQGTKVETK | 0.66 nM |
| reporter antibody against the SARS-CoV-2 antigen (antibody, V domains shown) VH: EVQLVESGGGLVQPGGSLRLSCAASGFTFANNAMSWVRQAPGKGLEWVSGINGYDGDTYYADSVKGRFTISRDNSKNTLYLQMNSLRAEDTAVYYCARTYYSYAMDYWGQGTLVTVSS VL: DIQMTQSPSSLSASVGDRVTITCRASQNISSYLAWYQQKPGKAPKLLIYWASNLASGVPSRFSGSGSGTDFTLTISSLQPEDFATYYCQQGAQIPLTFGQGTKVEIK | 0.69 nM |
